These results are taken from PMC4988710, “A Model for Dimerization of the SOX Group E Transcription Factor Family”.

The target in data set [1] is T1, SOX9 D-HMG (high solubility variant) (Homo sapiens) (UniProt P48436).
T1 sequence: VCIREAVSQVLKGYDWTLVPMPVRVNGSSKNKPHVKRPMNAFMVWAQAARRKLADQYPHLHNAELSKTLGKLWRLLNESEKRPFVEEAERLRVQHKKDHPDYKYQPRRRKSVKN
As to the kind of experiment: EMSA. Particulars: 10 mM sodium phosphate pH 6.0, 100 mM NaCl, 5 mM EDTA, on ice 30 min (1 h for 32P titrations); 9 nM DNA for Kd, 2 uM DNA for SYBR Green EMSA. Background: Mobility shift assays separate free from complexed probe on a gel.

A further data set has as its target SOX9 D-HMG A119E (Homo sapiens, UniProt P48436 71-184, A119E). As to the kind of experiment: EMSA; dimerization lost; single and double occupancy bands; 10 mM sodium phosphate pH 6.0, 100 mM NaCl, 5 mM EDTA, on ice 30 min (1 h for 32P titrations); 9 nM DNA for Kd, 2 uM DNA for SYBR Green EMSA. Particulars: protein: recombinant; tags: 6xHis; chain copies: 2; label: 32P 5' for Kd; unlabeled (SYBR Green) in mutant EMSA; blunt; self-complementary, 2 copies of one strand.

For a further data set, the target named is SOX9 D-HMG L142Q (Homo sapiens, UniProt P48436 71-184, L142Q). The description is as above. Particulars: protein: recombinant; tags: 6xHis; chain copies: 2; label: 32P 5' for Kd; unlabeled (SYBR Green) in mutant EMSA; blunt; self-complementary, 2 copies of one strand.
The next data set concerns the target SOX9 D-HMG L145E (Homo sapiens, UniProt P48436 71-184, L145E). Description: EMSA; dimerization retained; 10 mM sodium phosphate pH 6.0, 100 mM NaCl, 5 mM EDTA, on ice 30 min (1 h for 32P titrations); 9 nM DNA for Kd, 2 uM DNA for SYBR Green EMSA. As to conditions: protein: recombinant; tags: 6xHis; chain copies: 2; label: 32P 5' for Kd; unlabeled (SYBR Green) in mutant EMSA; blunt; self-complementary, 2 copies of one strand.

The next data set has as its target SOX9 D-HMG A118E (Homo sapiens, UniProt P48436 71-184, A118E). The data set is described as above. As to conditions: protein: recombinant; tags: 6xHis; chain copies: 2; label: 32P 5' for Kd; unlabeled (SYBR Green) in mutant EMSA; blunt; self-complementary, 2 copies of one strand.
For data set [2], the target named is T2, SOX9 HMG (Homo sapiens, UniProt P48436 110-184). As to the kind of experiment: EMSA; Hill 2.2 ± 0.4; 10 mM sodium phosphate pH 6.0, 100 mM NaCl, 5 mM EDTA, on ice 30 min (1 h for 32P titrations); 9 nM DNA for Kd, 2 uM DNA for SYBR Green EMSA. As to conditions: protein: recombinant; tags: 6xHis; label: 32P 5' for Kd; unlabeled (SYBR Green) in mutant EMSA; blunt; self-complementary, 2 copies of one strand.

Data set [3] has as its target T2, SOX9 HMG. As to the kind of experiment: EMSA; Hill 1.6 ± 0.5; 10 mM sodium phosphate pH 6.0, 100 mM NaCl, 5 mM EDTA, on ice 30 min (1 h for 32P titrations); 9 nM DNA for Kd, 2 uM DNA for SYBR Green EMSA. As to conditions: protein: recombinant; tags: 6xHis; label: 32P 5'; blunt.

For orientation: Kd means a measure of binding affinity in units of concentration.

“GGGATCCTACACAAAGCCGGCTTTGTGTAGGATCCC (double strand) [CC36]” showed a Kd in data set [1] of 98 nM.
The same measure, in the same setting: with “GGGTTAACAGAACAATGGAATCTGGTAGA (double strand) [S9WT]” the figure was 82 nM.

B1: CC36 (dsDNA)
DNA 1: GGGATCCTACACAAAGCCGGCTTTGTGTAGGATCCC
DNA 2: B1 DNA 1
As to B1, the binding result with SOX9 D-HMG A119E, with SOX9 D-HMG L142Q, with SOX9 D-HMG L145E and with SOX9 D-HMG A118E was “binds” each time. The Kd in the data set with SOX9 HMG [2] came out at 109 ± 10 nM.

B2: S9WT (dsDNA)
DNA 1: GGGTTAACAGAACAATGGAATCTGGTAGA
DNA 2: TCTACCAGATTCCATTGTTCTGTTAACCC
For B2, the Kd with SOX9 HMG [3] worked out at 101 ± 33 nM.
